Assay results taken from US20020164620.

Columns and labels:
[1] = target: T1, SCC1-myc (in vitro translated human SCC1 with myc tag) (UniProt O60216)
T1 sequence: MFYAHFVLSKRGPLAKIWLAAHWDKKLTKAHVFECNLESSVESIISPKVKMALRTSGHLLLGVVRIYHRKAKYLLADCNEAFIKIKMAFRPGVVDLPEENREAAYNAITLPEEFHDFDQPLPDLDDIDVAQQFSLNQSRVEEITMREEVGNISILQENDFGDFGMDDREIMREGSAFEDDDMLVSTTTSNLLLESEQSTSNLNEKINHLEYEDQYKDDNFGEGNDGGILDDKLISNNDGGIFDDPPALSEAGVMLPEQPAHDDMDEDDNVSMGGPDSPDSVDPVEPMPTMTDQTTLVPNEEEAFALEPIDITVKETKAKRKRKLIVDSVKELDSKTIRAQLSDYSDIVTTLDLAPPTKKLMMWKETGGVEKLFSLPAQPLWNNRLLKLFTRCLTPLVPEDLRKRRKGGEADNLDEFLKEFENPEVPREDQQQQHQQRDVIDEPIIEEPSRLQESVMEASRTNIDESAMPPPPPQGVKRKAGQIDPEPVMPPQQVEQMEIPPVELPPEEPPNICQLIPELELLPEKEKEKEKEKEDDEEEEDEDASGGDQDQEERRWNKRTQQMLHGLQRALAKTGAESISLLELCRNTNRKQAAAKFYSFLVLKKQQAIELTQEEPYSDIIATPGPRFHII

[2] = test system: T2, Bio-SVEQGR-amk
T2 sequence: SVEQGR

[3] = test system: T3, Bio-SVEQGR-cmk
T3 sequence: SVEQGR

[4] = target: T4, destruction box deleted form of securin (UniProt O95997)
T4 sequence: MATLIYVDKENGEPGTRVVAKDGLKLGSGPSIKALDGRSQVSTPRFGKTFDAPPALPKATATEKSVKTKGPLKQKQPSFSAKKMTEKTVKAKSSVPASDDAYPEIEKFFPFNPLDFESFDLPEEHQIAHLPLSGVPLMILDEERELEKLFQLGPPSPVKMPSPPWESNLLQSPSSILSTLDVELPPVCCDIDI

[5] = target: T5, recombinant human securin, wildtype, expressed in E. coli (UniProt O95997)
T5 sequence: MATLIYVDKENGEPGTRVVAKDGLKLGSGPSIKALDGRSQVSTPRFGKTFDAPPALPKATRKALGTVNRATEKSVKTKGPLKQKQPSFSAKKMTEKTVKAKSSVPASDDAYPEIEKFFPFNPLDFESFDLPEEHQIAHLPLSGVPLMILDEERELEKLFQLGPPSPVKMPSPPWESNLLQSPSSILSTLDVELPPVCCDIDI

[6] = test system: separase-myc (in vitro translated separase construct with one myc epitope at its C-terminus)

Substance	cleavage of SCC1-myc (anti-myc immunoblot, FIG. 6B) [1]	cleavage of SCC1-myc by separase (anti-myc immunoblot) [2]	cleavage of SCC1-myc by separase (anti-myc immunoblot, FIG. 4C lane 2i) [2]	cleavage of SCC1-myc by separase (anti-myc immunoblot, FIG. 4C lane 3i) [2]	cleavage of SCC1-myc by separase (anti-myc immunoblot) [3]	cleavage of SCC1-myc (anti-myc immunoblot) [1]	cleavage of SCC1-myc by separase (anti-myc immunoblot) [4]	cleavage of SCC1-myc by separase (anti-myc immunoblot) [5]	cleavage of in vitro translated separase-myc (anti-myc immunoblot, FIG. 5) [6]
N-terminally FLAG-tagged full length human separase expressed in HeLa cells, anti-FLAG immunoprecipitate activated in mitotic Xenopus egg extract	ectopically expressed separase is able to cleave human SCC1	–	–	–	–	–	–	–	–
cleaved form of human separase (separase immunoprecipitate from nocodazole-arrested HeLa cells, activated in mitotic Xenopus egg extract)	–	both inhibitors are able to block the ability of separase to cleave SCC1	separase was unable to cleave SCC1	This treatment inhibited SCC1 cleavage by separase	both inhibitors are able to block the ability of separase to cleave SCC1	it is the cleaved form of separase that is the active protease which cleaves SCC1, unless it is inhibited by the rebinding of securin	Identical results were obtained with two different forms of securin, the wildtype protein (WT-securin) and a form that can not be destroyed by ubiquitin-dependent proteolysis (DB-securin	no cleavage of SCC1 was detected	in vitro translated separase was cleaved when it was incubated with active separase obtained by incubation of separase immunoprecipitates in mitotic Xenopus egg extracts
